The subject of experiment [1] is FAK activation and ZEB1 expression in EOC cells. Put plainly: Western blot for pFAK, FAK and ZEB1 in EOC cells plated in 1% methylcellulose with antibody. The class given is cell-based, human. As to conditions: 50 μg/ml antibody vs normal mouse IgG1, suspension culture 24 hours, all three cell lines. On the procedure: (§1) FIGS. 10A-10D. Anti-CSPG4 antibody 7H5A2 inhibits Zeb1 expression and FAK activation, cell invasion and spheroid formation. FIG. 10A) Western blot for pFAK, FAK, and ZEB1 in EOC cells plated in 1% methylcellulose in the presence of 50 μg/ml normal mouse IgG1 (nmIgG1) or anti-CSPG4 antibody 7H5A2 cultured in suspension for 24 hours. FIG. 10B) Invasion assay using HEY cells pre-incubated with control (nm IgG1) or anti-CSPG4 (763.74 and 7H5A2) antibodies at 50 μg/ml for 2 hours and then plated in invasion chambers in the presence of the antibody in the top chamber only for 24 hours. Bars represent the total number of invading cells counted in five random fields/well from duplicate wells, +/−S.D. P values determined by student's t-test with Welch's correction. n=6 from 3 separate experiments. FIG. 10C) Cell growth assay using EOC cells plated in the presence of the indicated antibodies at 50 μg/ml in 1% methylcellulose for 7 days (HEY) or 14 days (A2780 and ES-2). Cells were collected from methylcellulose culture at those time points, and re-plated overnight in normal growth media in tissue culture plates. The following day all cells were collected from each well and counted. P values determined by student's t-test with Welch's correction, comparing live cell numbers (determined by trypan blue exclusion) from each condition, n=4. […]
(Immunoblotting shows a protein as a band on a membrane.)

Another experiment deals with HEY cells. The experiment in a line: Matrigel invasion assay with antibody pre-incubation. As to conditions: 50 μg/ml antibody, 2 hours pre-incubation, 24 hours, inhibition greater than with antibody 763.74. The class given is cell-based, human. On the procedure:
as §1

The target of another experiment is T1, CSPG4 (Homo sapiens, UniProt Q6UVK1).
T1 construct: screening against CSPG4 wild type and knockout cell lysates via western blot and cell staining via immunofluorescence; endogenous in cells; host or cells: HEY, ES-2 and A2780 human ovarian cancer cell lines (parent/mock cells, with CSPG4-CRISPR knockouts as negative control)
Put plainly: Specificity of antibody by western blot of CSPG4 wild type and knockout cell lysates and immunofluorescence cell staining. The settings on record: western blot of mock and CSPG4-CRISPR cell lines; immunofluorescence of HEY parent cells. The class given is binding. Here is the method: FIGS. 1A-1D. Antibody 7H5A2 targets CSPG4. FIG. 1A) Amino acid sequence of recombinant protein target used to generate antibody 7H5A2 (SEQ ID NO:34). Black text denotes CSPG4 region (SEQ ID NO:33), the lighter gray text corresponds to human FC sequence for protein purification. […]) Western blot with CSPG4 antibodies 763.74 (FIG. 1B) and 7H5A2 (FIG. 1C). Cells are harvested in lysis buffer and 40 μg protein was loaded in each well from the indicated mock and CSPG4-CRISPR cell lines. Alpha-tubulin is included as a loading control. FIG. 1D) Immunofluorescence staining of HEY parent cells with antibody 7H5A2. Red bar=10 μm. Magnification 600×.
Western blot: Western blots were performed using standard methods as described previously by Yang, et al., Cancer Res. 69(19):7538-47 (2009). […]
Generation of novel CSPG4 antibody: CSPG4-specific mouse monoclonal antibody 7H5A2 was generated by Promab Biotechnologies Inc (Richmond, CA) by injection of a recombinant CSPG4 protein immunogen corresponding to aa 1538-2221 of the CSPG4 core protein extracellular domain, expressed and purified from a eukaryotic expression system (see FIG. 1A). The specificity of the antibody was determined by screening against CSPG4 wild type and knockout cell lysates via western blot and cell staining via immunofluorescence (see FIGS. 1B and 1C). […]

The test system of experiment [2] is EOC cells (HEY, A2780, ES-2). Put plainly: Spheroid formation / cell growth assay in 1% methylcellulose with antibody. As to conditions: CSPG4 expressing mock transfected EOC cells, 50 μg/ml antibody. The class given is cell-based, human. Here is the method: as §1

T1 sequence (Q6UVK1 30-2322): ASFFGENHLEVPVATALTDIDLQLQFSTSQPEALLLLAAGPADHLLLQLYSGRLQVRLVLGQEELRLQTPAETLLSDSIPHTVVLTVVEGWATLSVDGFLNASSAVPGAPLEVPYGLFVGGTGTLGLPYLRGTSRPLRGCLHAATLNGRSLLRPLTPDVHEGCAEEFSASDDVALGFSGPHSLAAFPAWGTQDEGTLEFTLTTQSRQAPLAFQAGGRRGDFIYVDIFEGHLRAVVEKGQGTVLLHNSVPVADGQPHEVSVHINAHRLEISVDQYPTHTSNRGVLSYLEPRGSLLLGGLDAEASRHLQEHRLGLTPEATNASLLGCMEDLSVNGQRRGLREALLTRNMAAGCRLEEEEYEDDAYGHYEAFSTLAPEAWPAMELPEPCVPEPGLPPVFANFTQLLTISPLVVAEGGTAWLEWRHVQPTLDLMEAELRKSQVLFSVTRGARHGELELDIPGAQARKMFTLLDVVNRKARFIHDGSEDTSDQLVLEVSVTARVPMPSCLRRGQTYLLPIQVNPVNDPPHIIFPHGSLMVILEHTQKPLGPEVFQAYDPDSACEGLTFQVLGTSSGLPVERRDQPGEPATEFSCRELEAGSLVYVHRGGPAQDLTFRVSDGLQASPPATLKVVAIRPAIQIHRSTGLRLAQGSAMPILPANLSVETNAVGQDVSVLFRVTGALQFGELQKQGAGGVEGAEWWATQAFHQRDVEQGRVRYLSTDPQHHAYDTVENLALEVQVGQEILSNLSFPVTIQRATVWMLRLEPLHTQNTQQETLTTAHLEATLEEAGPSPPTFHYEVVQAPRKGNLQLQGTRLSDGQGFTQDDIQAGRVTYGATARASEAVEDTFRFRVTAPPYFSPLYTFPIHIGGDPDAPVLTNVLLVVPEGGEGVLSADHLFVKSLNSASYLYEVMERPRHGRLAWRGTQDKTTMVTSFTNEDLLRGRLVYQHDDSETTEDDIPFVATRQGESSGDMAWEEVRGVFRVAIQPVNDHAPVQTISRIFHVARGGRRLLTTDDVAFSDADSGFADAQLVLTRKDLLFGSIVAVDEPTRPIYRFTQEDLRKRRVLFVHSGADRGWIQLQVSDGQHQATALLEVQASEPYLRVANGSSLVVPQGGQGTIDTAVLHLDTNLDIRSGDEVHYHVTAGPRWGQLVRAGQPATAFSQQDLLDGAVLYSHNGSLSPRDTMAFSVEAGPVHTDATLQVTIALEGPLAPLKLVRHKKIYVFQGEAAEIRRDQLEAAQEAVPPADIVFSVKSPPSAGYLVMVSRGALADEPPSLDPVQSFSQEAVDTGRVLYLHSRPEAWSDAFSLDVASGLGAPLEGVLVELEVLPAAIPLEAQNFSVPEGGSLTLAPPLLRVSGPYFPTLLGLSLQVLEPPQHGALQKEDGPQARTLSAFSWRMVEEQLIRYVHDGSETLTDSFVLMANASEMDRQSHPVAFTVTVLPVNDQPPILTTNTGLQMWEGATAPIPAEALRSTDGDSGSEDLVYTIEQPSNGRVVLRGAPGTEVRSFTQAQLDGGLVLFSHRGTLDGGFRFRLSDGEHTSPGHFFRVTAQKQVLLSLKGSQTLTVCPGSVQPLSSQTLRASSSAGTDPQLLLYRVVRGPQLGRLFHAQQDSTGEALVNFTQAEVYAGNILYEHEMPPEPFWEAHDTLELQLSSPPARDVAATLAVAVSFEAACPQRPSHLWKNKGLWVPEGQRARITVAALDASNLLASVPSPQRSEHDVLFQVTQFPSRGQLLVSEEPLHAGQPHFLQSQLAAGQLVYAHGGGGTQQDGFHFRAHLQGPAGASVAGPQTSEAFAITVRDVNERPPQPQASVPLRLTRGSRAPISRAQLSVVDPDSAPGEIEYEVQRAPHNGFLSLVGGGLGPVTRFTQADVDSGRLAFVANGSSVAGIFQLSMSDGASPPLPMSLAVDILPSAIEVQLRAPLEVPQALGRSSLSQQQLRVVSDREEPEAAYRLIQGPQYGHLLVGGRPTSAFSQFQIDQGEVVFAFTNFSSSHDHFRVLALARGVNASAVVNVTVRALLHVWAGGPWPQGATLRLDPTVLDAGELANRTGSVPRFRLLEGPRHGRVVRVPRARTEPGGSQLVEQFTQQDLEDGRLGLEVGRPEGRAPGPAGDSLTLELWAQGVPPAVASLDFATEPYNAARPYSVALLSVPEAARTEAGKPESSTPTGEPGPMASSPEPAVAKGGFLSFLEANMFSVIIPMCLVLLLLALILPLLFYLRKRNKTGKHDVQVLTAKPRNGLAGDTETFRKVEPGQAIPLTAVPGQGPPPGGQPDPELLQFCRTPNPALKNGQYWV

B1: 7H5A2: CSPG4-specific mouse monoclonal antibody, isotype IgG1; heavy chain variable SEQ ID NO:8, light chain variable SEQ ID NO:16 (antibody, V domains shown)
VH: QVQLQQSGAELVRPGSSVKISCKASGFAFSNYWMNWVKQRPGQGLEWIGQIFPGDGDTNYNGKFKGKATLTADKSSSTAYMQLISLTSEDSAVYFCVRESDWGRGTTLTVSS
VL: DIQMTQTTSSLSASLGDRVTISCSASQGINNYLNWYQQTPDGTVKLLIFYTSSLQSGVPSRFSGSGSGTDYSLTISNLEPEDIATYYCQQYSKLPFTFGSGTKLEIKR
With B1, in experiment [1], the ZEB1 expression result is listed as “inhibited” and the “activation of FAK” value was “inhibited”. Moreover, in the experiment with HEY cells, the EOC invasion entry was “significantly inhibited”. The “recognition of CSPG4 on the cell surface” value in the experiment with CSPG4 is recorded as “specifically recognizes CSPG4 on the cell surface”. In addition, in experiment [2] (7 days (HEY) or 14 days (A2780 and ES-2)), the spheroid formation result is “significantly inhibited”. Further, in experiment [2] (live cell numbers by trypan blue exclusion), the EOC cell survival entry is on record as “significantly inhibited”.

Values taken from US20250313648A1, “Binders of Chondroitin Sulfate Proteoglycan (CSPG4) Polypeptides” (Regents of the University of Minnesota, priority 2021, published 2025).
